In article PMC10135883, “Structural Basis of the Interaction between Human Axin2 and SIAH1 in the Wnt/β-Catenin Signaling Pathway” (Biomolecules, 2023):
Positions count from the first letter of the chain named. Names may count otherwise. Blank lines part the entries; values can stand above or below the molecule they belong to.

Tests used:
[1] = target: SIAH1-SBD (89-282) F165A (human) (UniProt Q8IUQ4); assay: ITC; ITC200, 25 °C; 20 mM Tris-HCl pH8.0, 100 mM NaCl; 330 μM Axin2 peptide injected into 30 μM SIAH1; single binding site model
[2] = target: SIAH1-SBD (substrate-binding domain of E3 ubiquitin-protein ligase SIAH1, residues 89-282) (human) (UniProt Q8IUQ4); assay: as above
[3] = target: T1, SIAH1-SBD (substrate-binding domain of E3 ubiquitin-protein ligase SIAH1, residues 89-282) (human, UniProt Q8IUQ4-1 89-282); assay: ITC
T1 chain: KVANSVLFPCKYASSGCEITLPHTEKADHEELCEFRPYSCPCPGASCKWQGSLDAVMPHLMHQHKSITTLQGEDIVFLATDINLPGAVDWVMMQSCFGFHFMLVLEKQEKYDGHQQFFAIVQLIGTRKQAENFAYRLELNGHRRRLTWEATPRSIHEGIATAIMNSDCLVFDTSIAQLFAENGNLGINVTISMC

[4] = target: T2, wt Axin2_(356–368) peptide used in ITC, Q9Y2T1; assay: ITC; conditions: chain shown with the change;; parent: 8.77
T2 chain: HRLPKEMTPVEPA

[5] = target: T3, SIAH1-SBD (substrate-binding domain of E3 ubiquitin-protein ligase SIAH1, residues 89-282) (human, UniProt Q8IUQ4-1 89-282); assay: crystal structure; SIAH1-SBD mixed with Axin2 (356–376) at a molar ratio of 1:5; 0.1 M Bis-tris propane pH8.4, 24% PEG6000, 4 °C; 2.53 Å; conditions: both partners purified
T3 construct: Cloned from HeLa cDNA into pET28a with a TEV site at the N-terminal; The PDB code is printed as 8HEO in the results and as 8HE0 in the data availability statement; also called SIAH1-SBD_(89–282); SBD of SIAH1; source: E. coli BL21(DE3), purified (Ni-NTA, His-tag cleavage by TEV, Ni-NTA, HiTrap Q, Superdex 200); not shown: His tag, N-terminal, cleaved
T3 sequence (looked up): T1 chain

[6] = target: T3, SIAH1-SBD (substrate-binding domain of …); assay: BLI; Octet Red96; GST-Axin2-GBD or its deletion loaded onto GST biosensors, quenched with GST; dipped into SIAH1-SBD at 0.03-30 μM; free-GST biosensors as controls; conditions: both partners purified

- Kd [1]: 14.4 µM
- Kd [2]: 8.77 µM
- stoichiometry N [2]: 1
Molecule: wt Axin2_(356–368) peptide used in ITC (from UniProt Q9Y2T1 356-368)

- Kd [2]: 97.1 µM
Molecule: Axin2_(356–368) E366A (from UniProt Q9Y2T1 356-368) (peptide)

- Kd [3]: 8.7 µM
Molecule: HRLPKEMAPVEPATFAAELIS [Axin2_(356–368) single mutant T363A]

- Kd [4]: 9.1 µM
B1: SIAH1-SBD (substrate-binding domain of E3 ubiquitin-protein ligase SIAH1, residues 89-282), Q8IUQ4-1 Q159A (protein)
chain: T1 chain with Q71A

- Kd [4]: 10.5 µM
B2: SIAH1-SBD (substrate-binding domain of E3 ubiquitin-protein ligase SIAH1, residues 89-282), Q8IUQ4-1 T156A (protein)
chain: T1 chain with T68A

- binding result [5]: binds
B3: Axin2 (residues 356–376) (peptide, UniProt Q9Y2T1 356-376, looked up)
chain: HRLPKEMTPVEPATFAAELIS
notes: human Axin2 (GenBank NM_004655.4), residues 356-376 within the GBD; also called Axin2_(356–376); Axin2 peptide; source: E. coli BL21 (DE3), purified (glutathione sepharose 4B, GST removed by PreScission protease, Superdex 75); not shown: GST, N-terminal, cleaved

- Kd [6]: ~2200 nM
B4: GST-Axin2-GBD (GSK3 binding domain of Axin2, residues 334-432, with a GST-tag) (domain or fragment, human, UniProt Q9Y2T1 334-432, looked up)
chain: QREMHRSVKANGQVSLPHFPRTHRLPKEMTPVEPATFAAELISRLEKLKLELESRHSLEERLQQIREDEEREGSELTLNSREGAPTQHPLSLLPSGSYE
notes: pGEX-6p-1 construct; also called Axin-GDB; source: E. coli BL21 (DE3), purified (glutathione sepharose 4B); not shown: GST, N-terminal, kept
